Key:
Conditions in all cases: EMSA: 0.1 ng 32P probe, 15 ul, 30 min at 25 C (stated for GadE/RcsBD56E), 6% native PAGE; H-NS: 100-200 ng PCR fragment plus pBR322 digest, 15 min room …
[1] = molecular target: T1, Strep-AdiY (Escherichia coli) (UniProt P33234); test: EMSA
T1 sequence: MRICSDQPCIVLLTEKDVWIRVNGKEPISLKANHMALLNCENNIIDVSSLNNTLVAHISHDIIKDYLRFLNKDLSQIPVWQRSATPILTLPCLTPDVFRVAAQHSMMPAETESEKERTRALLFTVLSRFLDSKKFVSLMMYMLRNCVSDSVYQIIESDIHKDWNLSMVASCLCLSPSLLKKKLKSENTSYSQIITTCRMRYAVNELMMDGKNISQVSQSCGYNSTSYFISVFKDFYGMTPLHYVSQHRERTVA

[2] = molecular target: T2, H-NS-His6 (Escherichia coli) (UniProt P0ACF8); test: competitive EMSA
T2 sequence: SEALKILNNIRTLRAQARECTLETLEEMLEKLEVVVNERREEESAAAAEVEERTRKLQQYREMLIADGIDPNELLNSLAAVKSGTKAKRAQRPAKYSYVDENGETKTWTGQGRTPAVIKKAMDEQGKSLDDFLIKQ

[3] = molecular target: T3, His6-RcsBD56E;GadE-His6 D56E (Escherichia coli;Escherichia coli) (UniProt P0DMC7+P63204); test: EMSA
T3 sequence 1: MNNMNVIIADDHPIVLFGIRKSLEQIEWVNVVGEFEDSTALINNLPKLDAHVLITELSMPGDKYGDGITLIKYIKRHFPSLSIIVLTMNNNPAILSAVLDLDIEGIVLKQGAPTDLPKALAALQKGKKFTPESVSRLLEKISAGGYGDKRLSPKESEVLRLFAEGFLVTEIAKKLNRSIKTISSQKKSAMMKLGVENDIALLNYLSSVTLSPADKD
T3 sequence 2: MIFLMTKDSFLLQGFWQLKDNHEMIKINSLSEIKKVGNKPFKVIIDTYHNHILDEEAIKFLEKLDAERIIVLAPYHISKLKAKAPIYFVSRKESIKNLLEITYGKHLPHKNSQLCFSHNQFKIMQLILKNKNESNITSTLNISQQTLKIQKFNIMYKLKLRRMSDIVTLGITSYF

[4] = molecular target: T4, HdfR-His6 (Escherichia coli) (UniProt P0A8R9); test: EMSA
T4 sequence: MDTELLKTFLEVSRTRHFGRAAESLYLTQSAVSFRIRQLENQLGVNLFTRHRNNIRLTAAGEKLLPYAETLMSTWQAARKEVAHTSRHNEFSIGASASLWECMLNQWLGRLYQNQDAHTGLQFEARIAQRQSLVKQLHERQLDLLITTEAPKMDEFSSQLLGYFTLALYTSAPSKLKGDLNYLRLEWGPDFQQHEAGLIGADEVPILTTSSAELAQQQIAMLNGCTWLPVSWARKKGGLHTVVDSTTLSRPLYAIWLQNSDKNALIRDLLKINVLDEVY

| Sequence | binding [1] | binding [2] | binding [3] | binding [4] |
| --- | --- | --- | --- | --- |
| ATGCCAAAAACGCGTCTAAGAATGCAGTCGATTTAATAAAAATTTCCTAATTGCAGTATCTGATGCATCTGTAACTCATTGTATTGAAATAAAAATATCTGATTTTGATATTTTCCATCAACATGACATATACAGAAAACCAGGTTATAACCTCAGTGTCG (double strand) [hdeABD promoter] | no binding | – | – | – |
| GAATAAAAATAGATTTTATGTACTTTTAAAACAATGCACTATATTATGGGGTGATGGATATTCATGTCACGCCCCAAAATTAACTGAGTTCACCTAAACAGAAAGGATATAAACATCAGACAGGTTTACGTTACTATCAGGCATATCACCTCAGAATCAGATGAAAACTATAAAGAAATATCTATTATGGTTTTAA (double strand) [slp-dctR promoter] | no binding | binds | – | – |
| AATGATACTTGTCTGAAAAACAGATTTACGACGATATAAAATAATAATACTTATATGTTCGCTGATTTTAAGCACCGAGACTATCCGGTCTTTTACCAAATAATGAAGAATAATCCCTCCCTGGAAGATAATTGTAAAAAACAACAGCATAAGAATTAATCTTAGGATAAATTTTTATTTATCATGGCCTTTTGAACGCTGAAAAGTAGCGCTCTGCAAAGTAAACCCCGCTATAGTTATGCTATGCATTTGTCTTTAATGATATCTCGTCATTATATTAACAGGATGAAATTATCATTA (double strand) [yhiM promoter] | – | binds | binds | – |
| TCGTTATGCAGCGATATTTTTTGCTGTTCATGATAAATATCGAATGAACGACGAATGAGGATCACCGAGCAGACATGAGTCATGATTATCCCTTATATTTCATACTGCGATTATTTCAATTTCAGTATACTAATGAAATGATGCCAGACTGTTTCTTAGCGCAAAAACTGCCAGATTTGGTAGGACCAAAATTTATCCACAAAGTAGTTTTGCATAACAGTTAATTGATAATAAGTAAATGCAGCACGAATATATTTTCGCACAGCGTATAGCTTA (double strand) [gadW promoter] | – | binds | – | – |
| ATCCTGCACGCTCCTAATTCTTTGACCGAGCTAGTTATGGCGCGGAGTATTAGTTACGCTTGACAGAGTGTAAAACAAAACATTTAAATCATAACGACAAATAATTTTGCGGAGAGCACTGTGGATACGGAATTGTTAAAAACTTTCCTGGAAGTTAGCCGAACGCGTCACTTTGGTCGAGCGGCTGAATCGCTCTATCTGACCCAGTCAGCAGTGAGCTTTCGAATCAGACAACTGGAAAATCAACTGGGTGTGAACCTT (double strand) [hdfR promoter] | – | binds | – | – |
| TTATATATCCATGTTGGCGATAATCCCTTTGTATGTACTGTGCATCATCGCTATTACAAATCCTAATAATTCATTTCCACACAGGATAAGTAGATGAAGAAAAAAATTGAATC (double strand) [ydeP promoter] | – | binds | – | – |
| CGCATAATTTCCAGCAATCTTTGTTTATTTGCAATTATTTTTGTTGGGCTTTTTGTAGGTTATTTGTACAGCAAAATGGCGCTTGTACATCTATTTCCCCCAATGCAGGATGATAAATATCACGGGAGAATAGAGAATCATCAATCAGGTAAGAGTCTGGAATTTCACACTGTACCCTTTATACTGCCCT (double strand) [rcsD promoter] | – | binds | – | – |
| TGGCCTTAGGCCTTTTGAGTATGGCAACGTTTTCATAAAAATTGCTGCAAACAAAAATGTCATACTTTTTGCGCGGCCCCACCCCGCGCTTTTTTTTGCCTGTTATTTATCCTGTAAAAAAATATGTACATGAGAAATTACTATAAAAATTTGTACTATTAGTAAAAC (double strand) [adiY promoter] | – | binds | – | – |
| GGTCGCTCCTTGCCTGAAGTCATCCTTCAATACGTTAAGGGCGAAATCATACCGTGGGGCAATGAGTTATTACGGGCGTTTATTGCGAAGGGAGGGTGACGAAATGCACAGAAAACAAAA (double strand) [aslB promoter] | no binding | – | binds | no binding |
| TTGCTCATGCAAAGACTAACAATCCATTAAAATAGTAAGTGCTCCGGACAATTTTCCATGGATTATTTTCTGAACATTTTTCTTTGGCAAAGATGATGAATTTTGATGGTAAGGAATATTACTTCTGGTTCTCAGTAAAATCCTTTCGTAATACTATGTAATCAAGAAGTTTATGGCTGGTAAAAATAACGTCTTGCATTCACCAATAATATGTAAATAAACCCATCTATAGATGGTAAAAATAGGTTGTGGCAATTATCATTGCATCATTCCCTTTTCGAATG (double strand) [cadC promoter] | – | binds | – | – |

Reference: paper PMC2984483
